Laboratory results as given in paper doi:10.1101/2024.10.25.620210.

Target: α subunit of the Sinapis alba plastid-encoded RNA polymerase (SaPEP) (Sinapis alba) (UniProt Q9XQN8)
Experiment: cryo-EM structure

- stoichiometry N: 2
Substance: α subunit of the Sinapis alba plastid-encoded RNA polymerase (SaPEP) (from UniProt Q9XQN8 1-327) (natural protein)
